Test results published in patent CN106916225A (UNIV JINAN, dated 2017).

T1: 人N端脑钠肽前体 (N-terminal pro-brain natriuretic peptide, NT-proBNP) (human, UniProt P16860 27-102)
T1 construct: domain: N端脑钠肽前体 (NT-proBNP), 76个氨基酸残基; Bought recombinant protein; also called hNT-proBNP; 人N末端B型脑钠肽前体
T1 sequence (looked up): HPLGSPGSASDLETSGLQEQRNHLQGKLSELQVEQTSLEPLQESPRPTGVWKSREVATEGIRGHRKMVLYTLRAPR


Key:
[1] = biological target: T1, 人N端脑钠肽前体 (N-terminal pro-brain …); assay: indirect ELISA, NT-proBNP coated at 400 ng/ml, serially diluted purified ascites antibody
[2] = biological target: T1, 人N端脑钠肽前体 (N-terminal pro-brain …); assay: non-competitive enzyme immunoassay (ELISA), NT-proBNP coated at 400, 100, 25 ng/mL, Ka=(n-1)/2(n[Ab']t-[Ab]t)

| 效价 (antibody dilution at OD450 about 1.0) [1] | Ka [2] | Binder |
| --- | --- | --- |
| > 1e+06 dilution fold (1:x) | 1e+10 M⁻¹ | 单克隆抗体Ab1 (抗人N端脑钠肽前体单克隆抗体, 杂交瘤细胞株3A2分泌) (antibody) chain 1: VKLQESGPELVKPGASQKISCKTSGYTFTVYTLHWVKQSHGKSLEWIGAINPKTGSIRNNQKFRDKAILTIDRSSNTAYMDLRSLTSDDSAVYFCARNGGHDVYFFDYWGQGTTVTVSS chain 2: DIVLTQSPASLAVSLGQRATISYRASKSVSTSGYSYMHWNQQKPGQPPRLLIYLVSNLESGVPARFSGSGSGTDFTLNIHPVEEEDAATYYCQHIR |
| > 1e+06 dilution fold (1:x) | – | 单克隆抗体Ab3 (抗人N端脑钠肽前体单克隆抗体) (antibody, V domains shown) VH: QVQLQQPGAELVKPGASVKMSCQASGFTFTNYIIHWVKQTPGQGLEWIGAIYPGNGDTSYNQKFRGKATLTADKSSNTAYMQLSSLTSEDSAVYYCAGEDNYGNSYWYFDVWGAGTTVTVSS VL: DIVMTQTPLSLPVSLGDQASISCRSSQSIVHSTGNTYLEWYLQKPGQSPKLLIYKVSNRLSGVPDRFSGSGSGTDFTLKISRVEAEDLGVYYCFQGSQVSLTFGAGTKLELKR |
